Measured values taken from US20030175712A1 (published 2003).

Assays:
[1] = biological target: Gβγ (Ste4p/Ste18p) in yeast cells (S. cerevisiae) (UniProt P18852); assay: cell-based or functional assay
MBP-Far1 = biological target: T1, MBP-Far1 (S. cerevisiae, UniProt P21268 1-830, limits assumed); assay: in vitro binding of fusion proteins purified from E. coli
T1 construct: Expressed and purified from E. coli
T1 sequence (looked up): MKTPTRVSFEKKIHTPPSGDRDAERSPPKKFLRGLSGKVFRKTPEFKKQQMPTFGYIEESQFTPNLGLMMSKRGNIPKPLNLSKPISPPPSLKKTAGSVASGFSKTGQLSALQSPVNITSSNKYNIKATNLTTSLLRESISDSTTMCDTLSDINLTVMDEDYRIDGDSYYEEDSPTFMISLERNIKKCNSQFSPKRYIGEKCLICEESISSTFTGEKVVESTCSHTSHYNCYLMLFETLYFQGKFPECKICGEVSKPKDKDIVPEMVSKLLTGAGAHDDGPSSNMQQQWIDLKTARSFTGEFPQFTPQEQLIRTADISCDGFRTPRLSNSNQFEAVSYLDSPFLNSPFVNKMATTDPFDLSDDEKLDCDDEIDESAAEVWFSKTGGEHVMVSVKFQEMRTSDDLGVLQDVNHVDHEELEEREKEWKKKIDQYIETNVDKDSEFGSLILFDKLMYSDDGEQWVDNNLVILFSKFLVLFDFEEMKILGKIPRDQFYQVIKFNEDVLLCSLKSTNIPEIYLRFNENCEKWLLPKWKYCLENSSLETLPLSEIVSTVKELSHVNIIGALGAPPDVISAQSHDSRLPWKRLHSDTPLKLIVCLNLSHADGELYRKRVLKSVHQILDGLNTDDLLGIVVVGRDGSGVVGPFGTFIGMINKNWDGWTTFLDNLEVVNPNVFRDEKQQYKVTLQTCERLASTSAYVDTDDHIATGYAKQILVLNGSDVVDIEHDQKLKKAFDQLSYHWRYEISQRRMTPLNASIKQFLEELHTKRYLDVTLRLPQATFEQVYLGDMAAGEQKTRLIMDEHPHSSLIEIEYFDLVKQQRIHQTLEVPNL

MBP-Far1 H7 = biological target: T2, MBP-Far1 H7 (S. cerevisiae, UniProt P21268 1-755); assay: in vitro binding of purified MBP-Far1 and GST-Cdc24 fusions
T2 sequence (looked up): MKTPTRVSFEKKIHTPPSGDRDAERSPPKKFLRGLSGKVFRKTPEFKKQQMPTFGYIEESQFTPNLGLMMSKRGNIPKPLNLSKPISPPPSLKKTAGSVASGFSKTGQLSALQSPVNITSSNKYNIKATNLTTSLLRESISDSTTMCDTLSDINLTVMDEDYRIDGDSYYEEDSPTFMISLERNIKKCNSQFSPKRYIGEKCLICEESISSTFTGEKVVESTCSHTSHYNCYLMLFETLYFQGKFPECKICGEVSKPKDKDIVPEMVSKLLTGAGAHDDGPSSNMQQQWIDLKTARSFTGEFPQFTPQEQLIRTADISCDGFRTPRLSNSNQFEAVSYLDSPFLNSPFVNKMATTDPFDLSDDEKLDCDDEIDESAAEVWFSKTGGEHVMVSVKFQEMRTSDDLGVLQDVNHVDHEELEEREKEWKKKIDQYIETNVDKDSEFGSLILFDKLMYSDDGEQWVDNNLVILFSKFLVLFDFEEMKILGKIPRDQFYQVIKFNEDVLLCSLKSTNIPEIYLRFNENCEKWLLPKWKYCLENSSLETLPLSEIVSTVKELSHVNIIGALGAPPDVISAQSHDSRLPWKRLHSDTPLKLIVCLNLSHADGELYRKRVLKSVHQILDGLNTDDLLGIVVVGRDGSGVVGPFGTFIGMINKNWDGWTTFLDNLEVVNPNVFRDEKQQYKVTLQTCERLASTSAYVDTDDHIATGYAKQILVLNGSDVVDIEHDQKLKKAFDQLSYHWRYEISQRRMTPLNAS

[2] = biological target: T3, Cdc24p, two-hybrid construct (limits not stated) (S. cerevisiae, UniProt P11433 1-288); assay: yeast two-hybrid screen
T3 construct: not shown: GAL4 two-hybrid fusion partner
T3 sequence (looked up): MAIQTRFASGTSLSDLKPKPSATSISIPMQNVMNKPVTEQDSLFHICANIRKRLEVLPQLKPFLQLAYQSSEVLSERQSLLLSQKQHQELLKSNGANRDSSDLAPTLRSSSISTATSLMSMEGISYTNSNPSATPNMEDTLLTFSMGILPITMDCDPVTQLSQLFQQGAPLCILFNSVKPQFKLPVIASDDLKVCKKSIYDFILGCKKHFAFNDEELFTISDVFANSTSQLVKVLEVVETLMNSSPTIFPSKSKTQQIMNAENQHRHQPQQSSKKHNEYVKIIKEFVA

3×myc-Cdc24-m1 mutant = biological target: T4, 3×myc-Cdc24-m1 mutant (S. cerevisiae, UniProt P11433 1-854); assay: co-precipitation with Far1-protein A on IgG-Sepharose from yeast extracts
T4 sequence (looked up): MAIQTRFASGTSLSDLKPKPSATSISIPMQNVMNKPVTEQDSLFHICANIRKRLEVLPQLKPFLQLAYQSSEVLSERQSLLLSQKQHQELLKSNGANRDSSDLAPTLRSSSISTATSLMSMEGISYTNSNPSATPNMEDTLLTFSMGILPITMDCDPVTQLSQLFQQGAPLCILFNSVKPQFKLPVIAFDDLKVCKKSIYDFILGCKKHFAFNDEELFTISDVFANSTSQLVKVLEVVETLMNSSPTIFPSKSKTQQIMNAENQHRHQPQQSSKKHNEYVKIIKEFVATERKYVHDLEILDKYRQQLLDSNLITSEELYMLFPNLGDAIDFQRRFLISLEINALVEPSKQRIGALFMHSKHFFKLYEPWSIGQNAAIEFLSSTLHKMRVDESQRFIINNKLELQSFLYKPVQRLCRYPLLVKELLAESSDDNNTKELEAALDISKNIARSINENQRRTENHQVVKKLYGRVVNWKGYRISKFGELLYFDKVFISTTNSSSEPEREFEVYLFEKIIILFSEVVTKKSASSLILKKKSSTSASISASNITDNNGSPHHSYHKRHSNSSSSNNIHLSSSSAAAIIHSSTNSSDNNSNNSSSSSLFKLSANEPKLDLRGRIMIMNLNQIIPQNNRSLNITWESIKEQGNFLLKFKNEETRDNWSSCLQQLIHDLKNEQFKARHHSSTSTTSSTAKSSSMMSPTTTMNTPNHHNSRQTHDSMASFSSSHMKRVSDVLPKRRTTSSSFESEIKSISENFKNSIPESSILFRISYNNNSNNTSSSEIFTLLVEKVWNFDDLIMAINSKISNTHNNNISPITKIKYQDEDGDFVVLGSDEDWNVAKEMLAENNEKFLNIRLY
Source text: Although cdc24-m and far1-s mutants result in similar defects in growth orientation during mating, we set out to determine if these genes function in the same orientation process. […] Cdc24 and Far1 were epitope tagged in order to determine whether these proteins interact in yeast cells. The chronosomal copy of Cdc24 was replaced with a 3×myc tagged Cdc24 and the chromosomal copy of Far1 was replaced with Far1 protein A fusion. Both of these fusion proteins are fully functional. Isolation of Far1-protein A from yeast extracts using IgG-Sepharose co-precipitated 3×myc-Cdc24. In contrast, the 3×myc-Cdc24-m1 mutant was defective in binding Far1 in similar imnmunoprecipitation assays.

Gβγ (Ste4p/Ste18p) in yeast cells (S. cerevisiae), sequence (P18852 1-107): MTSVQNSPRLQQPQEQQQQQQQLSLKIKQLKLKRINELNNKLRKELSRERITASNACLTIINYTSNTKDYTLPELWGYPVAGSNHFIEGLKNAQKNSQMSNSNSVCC

“Cdc24p in CDC24 (wild type) yeast cells (from UniProt P11433 1-854)” showed an average cosine of the angle of cell projection relative to the micropipet (orientation in a pheromone gradient) [1] of 0.52.

B1: GSTCdc24p (1-472 aa) (other, S. cerevisiae, UniProt P11433 1-472, looked up)
chain: MAIQTRFASGTSLSDLKPKPSATSISIPMQNVMNKPVTEQDSLFHICANIRKRLEVLPQLKPFLQLAYQSSEVLSERQSLLLSQKQHQELLKSNGANRDSSDLAPTLRSSSISTATSLMSMEGISYTNSNPSATPNMEDTLLTFSMGILPITMDCDPVTQLSQLFQQGAPLCILFNSVKPQFKLPVIASDDLKVCKKSIYDFILGCKKHFAFNDEELFTISDVFANSTSQLVKVLEVVETLMNSSPTIFPSKSKTQQIMNAENQHRHQPQQSSKKHNEYVKIIKEFVATERKYVHDLEILDKYRQQLLDSNLITSEELYMLFPNLGDAIDFQRRFLISLEINALVEPSKQRIGALFMHSKHFFKLYEPWSIGQNAAIEFLSSTLHKMRVDESQRFIINNKLELQSFLYKPVQRLCRYPLLVKELLAESSDDNNTKELEAALDISKNIARSINENQRRTENHQVVKKLYGRVV
notes: range 1-472; Expressed in E. coli; also called GSTCdc24 fusion; GST Cdc24 fusion (residues 1-472); not shown: glutathione-S-transferase as encoded by pGEX-2T (Pharmacia)
B1: binds (MBP-Far1); no binding (MBP-Far1 H7).

B2: Ste4p mutant (SEQ. I.D. No: 13) (other)
chain: MAHQMDSITYSNNVTQQYIQPQSLQDISAVEEEIQNKIEAARQESKQLHAQINKAKHKIQDASLFQMANKVTSLTKNKINLKPNIVLKGHNNKISDFRWSRDSKRILSASQDGFMLIWDSASGLKQNAIPLDSQWVLSCAISPSSTLVASAGLNNNCTIYRVSKENRVAQNVASIFKGHTCYISDIEFTDNAHILTASGDMTCALWDIPKAKRVRGYSDHLGDVLALAIPEEPNLENSSNTFASCGSDGYTYIWDSRSPSAVQSFYVNDSDINALRFFKDGMSIVAGSDNGAINMYDLRSDCSIATFSLFRGYEERTPTPTYMAANMEYNTAQSPQTLKSTSSSYLDNQGVVSLDFSASGRLMYSCYTDIGCVVWDVLKGEIVGKLEGHGGRVTGVRSSPDGLAVCTGSWDSTMKIWSPGYQ
notes: Isolated in a two-hybrid screen; also called mutant G protein β subunit; I.D. No: 12 (nucleotide); not shown: GAL4 two-hybrid fusion partner
B2: no binding [2].

B3: Ste4p mutant (SEQ. I.D. No: 15) (other)
chain: MAHQMDSITYSNNVTQQYIQPQSLQDISAVEEEIQNKIEAARQESKQLHAQINKAKHKIQDASLFQMANKVTSLTKNKINLKPNIVLKGHNNKISDFRWSRDSKRILSASQDGFMLIWDSASGLKQNAIPLDSQWVLSCAISPSSTLVASAGLNNNCTIYRVSKENRVAQNVASIFKGHTCYISDIEFTDNAHILTASGDMTCALWDIPKAKRVREYSDHLGDVLALAIPEEPNLENSSNTFASCGSDGYTYIWDSRSPSAVQSFYVNDSDINALRFFKDGMSIVAGSDNGAINMYDLRSDCSIATFSLFRGYEERTPTPTYMAANMEYNTAQSPQTLKSTSSSYLDNQGAVSLDFSASGRLMYSCYTDIGCVVWDVLKGEIVGKLEGHGGRVTGVRSSPDGLAVCTGSWDSTMKIWSPGYQ
notes: Isolated in a two-hybrid screen; also called mutant G protein β subunit; I.D. No: 14 (nucleotide); not shown: GAL4 two-hybrid fusion partner
B3: no binding [2].

B4: Far1 protein A fusion (other, S. cerevisiae, UniProt P21268 1-830, looked up)
chain: MKTPTRVSFEKKIHTPPSGDRDAERSPPKKFLRGLSGKVFRKTPEFKKQQMPTFGYIEESQFTPNLGLMMSKRGNIPKPLNLSKPISPPPSLKKTAGSVASGFSKTGQLSALQSPVNITSSNKYNIKATNLTTSLLRESISDSTTMCDTLSDINLTVMDEDYRIDGDSYYEEDSPTFMISLERNIKKCNSQFSPKRYIGEKCLICEESISSTFTGEKVVESTCSHTSHYNCYLMLFETLYFQGKFPECKICGEVSKPKDKDIVPEMVSKLLTGAGAHDDGPSSNMQQQWIDLKTARSFTGEFPQFTPQEQLIRTADISCDGFRTPRLSNSNQFEAVSYLDSPFLNSPFVNKMATTDPFDLSDDEKLDCDDEIDESAAEVWFSKTGGEHVMVSVKFQEMRTSDDLGVLQDVNHVDHEELEEREKEWKKKIDQYIETNVDKDSEFGSLILFDKLMYSDDGEQWVDNNLVILFSKFLVLFDFEEMKILGKIPRDQFYQVIKFNEDVLLCSLKSTNIPEIYLRFNENCEKWLLPKWKYCLENSSLETLPLSEIVSTVKELSHVNIIGALGAPPDVISAQSHDSRLPWKRLHSDTPLKLIVCLNLSHADGELYRKRVLKSVHQILDGLNTDDLLGIVVVGRDGSGVVGPFGTFIGMINKNWDGWTTFLDNLEVVNPNVFRDEKQQYKVTLQTCERLASTSAYVDTDDHIATGYAKQILVLNGSDVVDIEHDQKLKKAFDQLSYHWRYEISQRRMTPLNASIKQFLEELHTKRYLDVTLRLPQATFEQVYLGDMAAGEQKTRLIMDEHPHSSLIEIEYFDLVKQQRIHQTLEVPNL
notes: Isolated from yeast extracts on IgG-Sepharose; not shown: protein A moiety
B4: no binding (3×myc-Cdc24-m1 mutant).
